# Laboratory results from patent US8986682B2, “Method to increase the absorption of unsaturated fatty acids by human infants” (Swedish Orphan Biovitrum AB (publ), priority 2010, dated 2015).
# Several values for one entry are separate records, joined by “and”; a condition that tells them apart may be missing. Equal entries are not always repeated. Marks after values point to notes of the source that are not given here.
# B1: rhBSSL: recombinant human bile-salt-stimulated lipase, SEQ ID. NO. 1, expressed from recombinant CHO cells; used in both clinical trials (protein, listed as Homo sapiens)
# chain: AKLGAVYTEGGFVEGVNKKLGLLGDSVDIFKGIPFAAPTKALENPQPHPGWQGTLKAKNFKKRCLQATITQDSTYGDEDCLYLNIWVPQGRKQVSRDLPVMIWIYGGAFLMGSGHGANFLNNYLYDGEEIATRGNVIVVTFNYRVGPLGFLSTGDANLPGNYGLRDQHMAIAWVKRNIAAFGGDPNNITLFGESAGGASVSLQTLSPYNKGLIRRAISQSGVALSPWVIQKNPLFWAKKVAEKVGCPVGDAARMAQCLKVTDPRALTLAYKVPLAGLEYPMLHYVGFVPVIDGDFIPADPINLYANAADIDYIAGTNNMDGHIFASIDMPAINKGNKKVTEEDFYKLVSEFTITKGLRGAKTTFDVYTESWAQDPSQENKKKTVVDFETDVLFLVPTEIALAQHRANAKSAKTYAYLFSHPSRMPVYPKWVGADHADDIQYVFGKPFATPTGYRPQDRTVSKAMIAYWTNFAKTGDPNMGDSAVPTHWEPYTTENSGYLEITKKMGSSSMKRSLRTNFLRYWTLTYLALPTVTDQEATPVPPTGDSEATPVPPTGDSETAPVPPTGDSGAPPVPPTGDSGAPPVPPTGDSGAPPVPPTGDSGAPPVPPTGDSGAPPVPPTGDSGAPPVPPTGDSGAPPVPPTGDAGPPPVPPTGDSGAPPVPPTGDSGAPPVTPTGDSETAPVPPTGDSGAPPVPPTGDSEAAPVPPTDDSKEAQMPAVIRF
# Tested on: preterm infants born before week 32 of gestational age
# Test: Coefficient of fat absorption (CFA), fat balance of food and stool by gas chromatography, studies BVT.BSSL-020/-021
# Assay type: in vivo, human
# Settings: PP
# Protocol: Patients were randomized to infant formula/pasteurized breast milk supplemented with rhBSSL at a final concentration of 0.15 g/L, or to infant formula/pasteurized breast milk “supplemented” with sterile water for injection (as placebo) for the first 7 days. After a washout period of 2 days, the patient was “crossed over” to the other treatment regimen during a second 7-day treatment period. Collection of feces samples for CFA assessment were performed during the last 3 days (72 hours) of each treatment period.
# The collection of feces for the determination of CFA was performed over a period corresponding to the fat, i.e., formula or milk, ingestion during 72 hours toward the end of each treatment period. Diapers supplied to each site were used for feces collection. During the two treatment periods, a carmine red tracer dye was given as a marker together with a meal (approximately at noon) on Day 4 and Day 13, respectively, and collection of stool commenced with the appearance of the first carmine red marker in the stool. The stool containing the first marker was collected and the date and time of the first stool collected was recorded on the CRF. At 72 hours following administration of the first red marker, the second carmine marker was given, and stool collection continued until the second carmine marker appeared. The stool containing the second marker was not collected, but the date and time of the appearance of the second marker was recorded on the CRF. Diapers were weighed before placement and after removal and the difference in weight was recorded on the CRF. The times of each collection and the elapsed duration of the entire collection period was also recorded on the CRF. The use of ointments for the treatment of skin irritation was prohibited during the stool collection period. Diapers were to be changed frequently during the collection period to keep the skin dry. Patients with skin rash severity leading to discontinuation of the stool collection were to be withdrawn from the study. Specific collection methods were provided in a separate laboratory manual. If applicable, vomit from the stool collection periods of both treatment periods was weighed. A small cloth/linen was weighed and placed under the head of each infant. When the cloth/linen was soiled with vomit, it was removed and re-weighed. If an additional cloth was used to remove vomit from the infant, that cloth was also weighed before and after use. The weight of vomit (total weight minus the weight of the cloth/linen) was recorded on the CRF. All other feed losses, e.g., formula or milk left in bottle, were measured and the amount accounted for in the calculation of the volume of formula consumed at each feeding.
# Feces samples, the formula (study 020) and the milk aliquots (study 021) were analyzed by a central laboratory. Individual fatty acids, including the long-chain polyunsaturated fatty acids DHA and AA, were quantified in feces and feed by a gas chromatographic method following extraction by the Folch method. In both studies, the Omegawax 250 column (Supelco) was used for separation of the fatty acids. However, due to co-elution of DHA with nervonic acid (C24:1), which was only present in the breast milk, samples from patients of the per-protocol analysis set from study 021 were also analyzed using a SP-2380 column (Supelco) in order to quantify DHA for those samples from study 021. […] Total lipids were calculated as the sum of the individual fatty acids. (See Section 7.5.1). The same analytical principle was used to determine lipids in each of the batches of formula and aliquots of breast milk used in the study. […]
# [1] = BVT.BSSL-020 (infant formula), 72-hour collection period
# [2] = BVT.BSSL-021 (pasteurized breast milk)
molecule,measurement,setting,value
B1,"CFA (overall), LS Mean",BVT.BSSL-020 (infant formula),69.46%
same,"CFA (overall), LS Mean Difference (rhBSSL − Placebo)",BVT.BSSL-020 (infant formula),2.08%
same,"CFA (overall), Maximum",BVT.BSSL-020 (infant formula),89.0%
same,"CFA (overall), Mean (SD)",BVT.BSSL-020 (infant formula),69.55 (14.452) %
same,"CFA (overall), Median",BVT.BSSL-020 (infant formula),70.99%
same,"CFA (overall), Minimum",BVT.BSSL-020 (infant formula),36.8%
same,CFA for C12:0,BVT.BSSL-020 (infant formula),89.70%
same,"CFA for C12:0, Difference (rhBSSL − Placebo)",BVT.BSSL-020 (infant formula),1.18%
same,CFA for C14:0,BVT.BSSL-020 (infant formula),76.56%
same,"CFA for C14:0, Difference (rhBSSL − Placebo)",BVT.BSSL-020 (infant formula),3.19%
same,CFA for C16:0,BVT.BSSL-020 (infant formula),46.95%
same,"CFA for C16:0, Difference (rhBSSL − Placebo)",BVT.BSSL-020 (infant formula),0.45%
same,CFA for C18:0,BVT.BSSL-020 (infant formula),42.20%
same,"CFA for C18:0, Difference (rhBSSL − Placebo)",BVT.BSSL-020 (infant formula),−1.10%
same,CFA for C18:1,BVT.BSSL-020 (infant formula),76.24%
same,"CFA for C18:1, Difference (rhBSSL − Placebo)",BVT.BSSL-020 (infant formula),2.37%
same,CFA for C18:2 n-6,BVT.BSSL-020 (infant formula),83.91%
same,"CFA for C18:2 n-6, Difference (rhBSSL − Placebo)",BVT.BSSL-020 (infant formula),4.99%
same,CFA for C18:3 n-3,BVT.BSSL-020 (infant formula),87.79%
same,"CFA for C18:3 n-3, Difference (rhBSSL − Placebo)",BVT.BSSL-020 (infant formula),4.42%
same,CFA for C20:4 n-6 (AA),BVT.BSSL-020 (infant formula),82.96%
same,"CFA for C20:4 n-6 (AA), Difference (rhBSSL − Placebo)",BVT.BSSL-020 (infant formula),7.14%
same,CFA for C22:6 n-3 (DHA),BVT.BSSL-020 (infant formula),81.15%
same,"CFA for C22:6 n-3 (DHA), Difference (rhBSSL − Placebo)",BVT.BSSL-020 (infant formula),6.85%
same,"Total Amount of Fat in Stool, Maximum",[1],15.0 g
same,"Total Amount of Fat in Stool, Mean (SD)",[1],8.53 g and 8.53 (3.416) g
same,"Total Amount of Fat in Stool, Median",[1],8.63 g
same,"Total Amount of Fat in Stool, Minimum",[1],3.2 g
same,"Coefficient of absorption of the sum of all LCPUFAs, LS mean",BVT.BSSL-020 Formula,82.2%
same,"Coefficient of absorption of the sum of all LCPUFAs, LS mean difference (rhBSSL-Placebo)",BVT.BSSL-020 Formula,7.01%
same,"Coefficient of absorption of the sum of all polyunsaturated fatty acids, LS mean",BVT.BSSL-020 Formula,84.0%
same,"Coefficient of absorption of the sum of all polyunsaturated fatty acids, LS mean difference (rhBSSL-Placebo)",BVT.BSSL-020 Formula,5.05%
same,"Coefficient of absorption of the sum of all saturated fatty acids, LS mean",BVT.BSSL-020 Formula,61.4%
same,"Coefficient of absorption of the sum of all saturated fatty acids, LS mean difference (rhBSSL-Placebo)",BVT.BSSL-020 Formula,0.08%
same,"Coefficient of absorption of the sum of all unsaturated fatty acids, LS mean",BVT.BSSL-020 Formula,78.8%
same,"Coefficient of absorption of the sum of all unsaturated fatty acids, LS mean difference (rhBSSL-Placebo)",BVT.BSSL-020 Formula,3.25%
same,"Coefficient of absorption of the sum of all LCPUFAs, LS mean",BVT.BSSL-020 and 021 Combined,76.1%
same,"Coefficient of absorption of the sum of all LCPUFAs, LS mean difference (rhBSSL-Placebo)",BVT.BSSL-020 and 021 Combined,7.33%
same,"Coefficient of absorption of the sum of all polyunsaturated fatty acids, LS mean",BVT.BSSL-020 and 021 Combined,77.3%
same,"Coefficient of absorption of the sum of all polyunsaturated fatty acids, LS mean difference (rhBSSL-Placebo)",BVT.BSSL-020 and 021 Combined,5.82%
same,"Coefficient of absorption of the sum of all saturated fatty acids, LS mean",BVT.BSSL-020 and 021 Combined,63.8%
same,"Coefficient of absorption of the sum of all saturated fatty acids, LS mean difference (rhBSSL-Placebo)",BVT.BSSL-020 and 021 Combined,2.25%
same,"Coefficient of absorption of the sum of all unsaturated fatty acids, LS mean",BVT.BSSL-020 and 021 Combined,74.7%
same,"Coefficient of absorption of the sum of all unsaturated fatty acids, LS mean difference (rhBSSL-Placebo)",BVT.BSSL-020 and 021 Combined,4.22%
same,"CFA (overall), LS Mean",[2],68.56%
same,"CFA (overall), LS Mean Difference (rhBSSL − Placebo)",[2],4.86%
same,"CFA (overall), Maximum",[2],93.2%
same,"CFA (overall), Mean (SD)",[2],68.46 (15.333) %
same,"CFA (overall), Median",[2],75.41%
same,"CFA (overall), Minimum",[2],31.2%
same,CFA for C12:0,[2],87.94%
same,"CFA for C12:0, Difference (rhBSSL − Placebo)",[2],3.50%
same,CFA for C14:0,[2],75.49%
same,"CFA for C14:0, Difference (rhBSSL − Placebo)",[2],5.94* %
same,CFA for C16:0,[2],63.88%
same,"CFA for C16:0, Difference (rhBSSL − Placebo)",[2],4.46%
same,CFA for C16:1,[2],96.24%
same,"CFA for C16:1, Difference (rhBSSL − Placebo)",[2],0.45%
same,CFA for C18:0,[2],46.11%
same,"CFA for C18:0, Difference (rhBSSL − Placebo)",[2],3.63%
same,CFA for C18:1,[2],71.01%
same,"CFA for C18:1, Difference (rhBSSL − Placebo)",[2],4.77%
same,CFA for C18:2 n-6,[2],71.26%
same,"CFA for C18:2 n-6, Difference (rhBSSL − Placebo)",[2],6.98* %
same,CFA for C18:3 n-3,[2],64.39%
same,"CFA for C18:3 n-3, Difference (rhBSSL − Placebo)",[2],2.04%
same,CFA for C18:3 n-6,[2],63.94%
same,"CFA for C18:3 n-6, Difference (rhBSSL − Placebo)",[2],5.82%
same,CFA for C20:1,[2],52.09%
same,"CFA for C20:1, Difference (rhBSSL − Placebo)",[2],8.53%
same,CFA for C20:2 n-6,[2],53.09%
same,"CFA for C20:2 n-6, Difference (rhBSSL − Placebo)",[2],8.37* %
same,CFA for C20:3 n-6 (sum of C20:3 n-6 and C20:3 n-3),[2],67.39§ %
